The source of these data is patent publication US20190142971A1, “FORMULATION AND DELIVERY OF MODIFIED NUCLEOSIDE, NUCLEOTIDE, AND NUCLEIC ACID COMPOSITIONS” (ModernaTX, Inc., priority 2013, published 2019).

One data set concerns BJ fibroblasts. The conditions noted are these: 250 ng transfected daily for 5 days.
In a further data set the test system is rats. As to the kind of experiment: Example 67: intravitreal mCherry/luciferase mRNA in rats, F-microscopy (Table 100). It counts as in vivo. The conditions noted are these: saline, 18 hours. From the text: The sample was compared against a control of saline only delivered intravitreally.
The formulation will be administered to the left or right eye of each animal on day 1 while the animal is anesthetized. On the day prior to administration gentamicin ophthalmic ointment or solution was applied to both eyes twice. The gentamicin ophthalmic ointment or solution was also applied immediately following the injection and on the day following the injection. Prior to dosing, mydriatic drops (1% tropicamide and/or 2.5% phenylephrine) are applied to each eye.
18 hours post dosing the eyes receiving the dose of mCherry and delivery buffer are enucleated and each eye was separately placed in a tube containing 10 mL 4% paraformaldehyde at room temperature for overnight tissue fixation. The following day, eyes will be separately transferred to tubes containing 10 mL of 30% sucurose and stored at 21° C. until they were processed and sectioned. The slides prepared from different sections were evaluated under F-microscopy.

The next data set has as its system mice. The data set is described as follows: Example 29: mCherry LNP IV in mice, liver and spleen by IHC, western blot, FACS. The conditions noted are these: LNP NPA-003-5, 100 ug IV, 24 hrs. The class given is in vivo. As for the experimental part: The mCherry formulation, listed in Table 54, was characterized by particle size, zeta potential, and encapsulation.
Mice were sacrificed at 24 hrs after dosing. The liver and spleen from the mice administered with mCherry modified mRNA formulations were analyzed by immunohistochemistry (IHC), western blot, or fluorescence-activated cell sorting (FACS).
(In general: A western blot detects proteins with antibodies after separation by electrophoresis.)

The next data set deals with HEK293 cells. The data set is described as follows: Example 46B: percent modification, HEK293 G-CSF ELISA (Table 75). It counts as cell-based, Human. The note with it: HEK293, 250 ng mRNA with RNAiMAX, supernatant after 16 hours. On the technique in general: In an ELISA, binding on a coated surface is turned into a signal by an enzyme label.
Data set [1] concerns peripheral blood mononuclear cells (PBMC). The class given is cell-based, human. How it is done: 500 ng of G-CSF mRNA modified with 5-methylcytosine (5mC) and pseudouridine (pseudoU) or unmodified G-CSF mRNA was transfected with 0.4 uL of Lipofectamine 2000 into peripheral blood mononuclear cells (PBMC) from three normal blood donors (D1, D2, and D3). […] The supernatant was harvested 6 hours and 18 hours after transfection and run by ELISA to determine the protein expression. The expression of G-CSF, IFN-alpha, and TNF-alpha for Donor 1 is shown in Table 88, Donor 2 is shown in Table 89 and Donor 3 is shown in Table 90.

Like-named read-outs stand apart in the source and are kept apart here.

B1: mCherry: mCherry mRNA (SEQ ID NO: 5; SEQ ID NO: 12 in Example 29), Cap1, fully modified with 5-methylcytosine and pseudouridine (nucleic acid)
chain: GGGAAAUAAGAGAGAAAAGAAGAGUAAGAAGAAAUAUAAGAGCCACCAUGGUAUCCAAGGGGGAGGAGGACAACAUGGCGAUCAUCAAGGAGUUCAUGCGAUUCAAGGUGCACAUGGAAGGUUCGGUCAACGGACACGAAUUUGAAAUCGAAGGAGAGGGUGAAGGAAGGCCCUAUGAAGGGACACAGACCGCGAAACUCAAGGUCACGAAAGGGGGACCACUUCCUUUCGCCUGGGACAUUCUUUCGCCCCAGUUUAUGUACGGGUCCAAAGCAUAUGUGAAGCAUCCCGCCGAUAUUCCUGACUAUCUGAAACUCAGCUUUCCCGAGGGAUUCAAGUGGGAGCGGGUCAUGAACUUUGAGGACGGGGGUGUAGUCACCGUAACCCAAGACUCAAGCCUCCAAGACGGCGAGUUCAUCUACAAGGUCAAACUGCGGGGGACUAACUUUCCGUCGGAUGGGCCGGUGAUGCAGAAGAAAACGAUGGGAUGGGAAGCGUCAUCGGAGAGGAUGUACCCAGAAGAUGGUGCAUUGAAGGGGGAGAUCAAGCAGAGACUGAAGUUGAAAGAUGGGGGACAUUAUGAUGCCGAGGUGAAAACGACAUACAAAGCGAAAAAGCCGGUGCAGCUUCCCGGAGCGUAUAAUGUGAAUAUCAAGUUGGAUAUUACUUCACACAAUGAGGACUACACAAUUGUCGAACAGUACGAACGCGCUGAGGGUAGACACUCGACGGGAGGCAUGGACGAGUUGUACAAAUGAUAAGCUGCCUUCUGCGGGGCUUGCCUUCUGGCCAUGCCCUUCUUCUCUCCCUUGCACCUGUACCUCUUGGUCUUUGAAUAAAGCCUGAGUAGGAAG
modifications: Cap1; 5-methylcytosine and pseudouridine
On to B1, for which the IFN-beta was 0 pg/mL in the data set on BJ fibroblasts (6 hours); 238 pg/mL in the data set with BJ fibroblasts (Day 1); 113 pg/mL with BJ fibroblasts (Day 2); 413 pg/mL with BJ fibroblasts (Day 3); 413 pg/mL with BJ fibroblasts (Day 4); 213 pg/mL with BJ fibroblasts (Day 5). Moreover, the IL-6 worked out at 3278 pg/mL with BJ fibroblasts (6 hours); 3893 pg/mL in the data set with BJ fibroblasts (Day 1); 1833 pg/mL with BJ fibroblasts (Day 2); 25539 pg/mL in the data set with BJ fibroblasts (Day 3); 29233 pg/mL in the data set with BJ fibroblasts (Day 4); 20178 pg/mL in the data set on BJ fibroblasts (Day 5). For the same molecule, the “mCherry expression in eye sections” value in the data set with rats is “Positive expression was seen”. The “mCherry expression in liver (histology)” value in the data set with mice was “uniform mCherry expression throughout the section”. Also, the “mCherry expression in spleen leukocyte populations (FACS)” value in the data set with mice is listed as “negative for mCherry expression”. In the data set with HEK293 cells, the “G-CSF Expression” value stood at 0 ng/mL. The G-CSF was 0 pg/mL in data set [1] (PBMC Donor 1, 500 ng mRNA, 6 hours); 0 pg/mL in data set [1] (PBMC Donor 1, 500 ng mRNA, 18 hours); 0 pg/mL in data set [1] (PBMC Donor 2, 500 ng mRNA, 6 hours); 7 pg/mL in data set [1] (PBMC Donor 2, 500 ng mRNA, 18 hours); 0 pg/mL in data set [1] (PBMC Donor 3, 500 ng mRNA, 6 hours); 0 pg/mL in data set [1] (PBMC Donor 3, 500 ng mRNA, 18 hours).
